T1: Boi1 SH3 (BOI1_YEAST), P38041
T1 chain: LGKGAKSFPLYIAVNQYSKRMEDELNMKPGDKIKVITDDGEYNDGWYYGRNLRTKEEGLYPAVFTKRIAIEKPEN

T2: Boi2 SH3 (BOI2_YEAST), P39969
T2 chain: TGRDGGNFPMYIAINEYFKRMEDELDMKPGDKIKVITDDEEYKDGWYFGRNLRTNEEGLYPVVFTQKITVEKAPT

T3: Rvs167 SH3 (RV167_YEAST), P39743
T3 chain: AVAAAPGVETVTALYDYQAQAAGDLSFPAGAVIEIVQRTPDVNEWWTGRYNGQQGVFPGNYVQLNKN

T4: Yfr024 SH3 (LSB3_YEAST), P43603
T4 chain: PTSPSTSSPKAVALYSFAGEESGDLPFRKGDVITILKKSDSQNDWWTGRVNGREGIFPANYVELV

T5: Yhr016c SH3 (YSC84_YEAST), P32793
T5 chain: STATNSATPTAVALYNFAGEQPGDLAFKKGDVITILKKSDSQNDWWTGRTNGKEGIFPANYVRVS


Experiments:
Experiment in all cases: SPOT array
[1] = molecular target: T1, Boi1 SH3 (BOI1_YEAST), P38041
[2] = molecular target: T2, Boi2 SH3 (BOI2_YEAST), P39969
[3] = molecular target: T3, Rvs167 SH3 (RV167_YEAST), P39743
[4] = molecular target: T4, Yfr024 SH3 (LSB3_YEAST), P43603
[5] = molecular target: T5, Yhr016c SH3 (YSC84_YEAST), P32793

Binder	normalised SPOT signal, Boehringer light units (BLU); mean over the file's lines of this peptide [1]	normalised SPOT signal, Boehringer light units (BLU); mean over the file's lines of this peptide [2]	normalised SPOT signal, Boehringer light units (BLU); mean over the file's lines of this peptide [3]	normalised SPOT signal, Boehringer light units (BLU); mean over the file's lines of this peptide [4]	normalised SPOT signal, Boehringer light units (BLU); mean over the file's lines of this peptide [5]
QGPPNLPARDKSLV [YLL023C 9-22]	63.2	23	18500	36100	64000
QGLPASPSRAALRY [YBR038W 55-68]	1720	57.8	62.5	522	104
QIFPKKPLRRTVMS [YDR182W 166-179]	231	282	737	35400	8570
QETPIIPKRIIHYS [YLR030W 11-24]	4800	246	625	15200	7820
QGYPRQPQRPQRYH [YDR171W 27-40]	7410	377	620	13200	8440
QILPTKPVKIIEQN [YLR082C 68-81]	30.5	36.5	14.6	183	73.8
PVDPTTPVKLGPGI [YOL142W 12-25]	40.5	21.4	19	-0	179
QEKPLTPLKYTKLI [YHL025W 160-173]	78	28.6	99.4	929	7.1
QFVPIAPQRLNMIF [YMR247C 1015-1028]	427	68.9	90	1580	601
PVGPKVPAKEPSPK [YEL043W 874-887]	88	5.8	30.7	381	48.6
QDSPDMPEKESVYV [YER179W 310-323]	51.6	42.6	4.7	26.9	0
PVYPSLPERSKVIL [YGR099W 44-57]	40.1	34	4000	24100	21100
QAHPPKPKRREGDI [YKR050W 402-415]	133	38.2	41.1	9260	740
QAAPRNPNKDATIA [YOR363C 59-72]	78.3	10.5	40.7	8.2	46.6
QGQPLPPPRGQVIL [YBR108W 287-300]	231	83.2	8250	22700	16000
QGEPLDPKRPSTAS [YGL027C 141-154]	51.9	23.1	45.6	440	418
PYPPSLPSRDLYEV [YLL028W 113-126]	36.2	31.1	944	8330	16000
